Consider one substance from US20240010680A1, “PEPTIDE DISINFECTANT FOR PREVENTING CORONAVIRUSES” (Xiamen University, priority 2021, published 2024).

The assay deals with hACE2-His purified protein (human (printed as hACE2)) (UniProt Q9BYF1).
Sequence of hACE2-His purified protein (human (printed as hACE2)) (Q9BYF1 18-740 limits assumed): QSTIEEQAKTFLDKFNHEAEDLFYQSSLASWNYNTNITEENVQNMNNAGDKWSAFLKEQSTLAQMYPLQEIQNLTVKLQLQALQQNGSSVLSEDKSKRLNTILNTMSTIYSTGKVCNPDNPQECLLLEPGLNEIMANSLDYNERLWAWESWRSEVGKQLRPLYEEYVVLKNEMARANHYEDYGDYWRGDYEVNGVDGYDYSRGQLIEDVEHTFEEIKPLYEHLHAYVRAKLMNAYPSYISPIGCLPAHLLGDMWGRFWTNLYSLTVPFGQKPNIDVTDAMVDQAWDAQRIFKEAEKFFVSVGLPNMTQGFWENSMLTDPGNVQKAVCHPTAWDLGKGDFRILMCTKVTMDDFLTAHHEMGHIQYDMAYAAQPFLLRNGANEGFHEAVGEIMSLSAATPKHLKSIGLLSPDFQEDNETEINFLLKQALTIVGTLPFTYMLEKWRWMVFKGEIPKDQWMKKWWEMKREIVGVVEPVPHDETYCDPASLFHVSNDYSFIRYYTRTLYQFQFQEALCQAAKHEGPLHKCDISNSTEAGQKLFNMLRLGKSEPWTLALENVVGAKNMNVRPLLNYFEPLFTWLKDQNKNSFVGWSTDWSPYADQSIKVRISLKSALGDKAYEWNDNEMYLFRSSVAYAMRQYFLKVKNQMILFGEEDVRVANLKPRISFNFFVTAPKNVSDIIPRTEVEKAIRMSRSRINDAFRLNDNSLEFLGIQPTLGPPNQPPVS

S1-HA purified protein (ligand): the Relative brightness value stood at 100%.
